Assay results: patent US9163048B2, “Multi-functional nucleic acid-based anti-cancer drug capable of targeting and therapy, method for preparing same and anti-cancer composition comprising same” (RESEARCH & BUSINESS FOUNDATION SUNGKYUNKWAN UNIVERSITY, priority 2011, dated 2015)

B1: linear nucleic acid (nucleic acid)
chain 1: GCTACGAGTAGGTACGGATCTGGCTGTACTGATGTGCCTGCGAC
chain 2: GTCGCAGGCACATCAGTACAGCCAGATCCGTACCTACTCG
modifications: chemistry not given here

Experiments:
[1] = test system: prostate cancer cells (LNCaP cell line); test: Anticancer effect, acridine orange / propidium iodide staining, confocal microscope; format: cell-based; conditions: 2 hours treatment, 24 hours culture, NIR radiation 10 minutes, 10 μM contained doxorubicin
Protocol: In addition, after the cells were treated with 10 μM (concentration of the contained doxorubicin) of the multifunctional nucleic-acid-based anticancer drug for 2 hours, the medium was exchanged with a fresh RPMI 1640 medium to remove the multifunctional nucleic-acid-based anticancer drug remaining at an outside of the cells, and the cells were cultured for 24 hours. Afterward, the cells were irradiated with […] for 10 minutes, and stained with acridine orange and propidium iodide (PI). As a control group, instead of the multifunctional nucleic-acid-based anticancer drug, a test was performed using phosphate buffered saline, doxorubicin, gold nanoparticles, an A10 aptamer and an anticancer-drug-captured nucleic acid structure.
This means that the multifunctional nucleic-acid-based anticancer drug can kill cells more effectively by applying both doxorubicin (chemotherapy) and an exothermic effect (thermal treatment).

[2] = Capture of doxorubicin in linear nucleic acid, autofluorescence of unbound doxorubicin in supernatant; format: physicochemical; conditions: per 1 μM linear nucleic acid (SEQ ID NOs 1 and 2); room temperature, 24 hours
Description: A supernatant was retrieved, and autofluorescence of the doxorubicin not binding to the linear nucleic acid was detected using a molecular device (SpectraMax M2 Microplate Reader).

Molecule	cell death (PI staining, red fluorescence) [1]	maximum doxorubicin bound per 1 μM linear nucleic acid [2] [µM]
COc1cccc2c1C(=O)c1c(O)c3c(c(O)c1C2=O)C[C@@](O)(C(=O)CO)C[C@@H]3O[C@H]1C[C@H](N)[C@H](O)[C@H](C)O1 [doxorubicin, reference compound]	dead cells stained with PI were observed	–
B1	red fluorescence was hardly observed	10
